Measurements from patent US20050042213A1, “Methods and pharmaceutical compositions for modulating heparanase activation and uses thereof” (InSight Biopharmaceuticals Ltd., priority 2003, published 2005).
Positions count from the first letter of the chain named.

Target: T1, pro-heparanase (H60) (Homo sapiens, UniProt Q9Y251, K307R)
T1 sequence (Q9Y251 36-543 K307R): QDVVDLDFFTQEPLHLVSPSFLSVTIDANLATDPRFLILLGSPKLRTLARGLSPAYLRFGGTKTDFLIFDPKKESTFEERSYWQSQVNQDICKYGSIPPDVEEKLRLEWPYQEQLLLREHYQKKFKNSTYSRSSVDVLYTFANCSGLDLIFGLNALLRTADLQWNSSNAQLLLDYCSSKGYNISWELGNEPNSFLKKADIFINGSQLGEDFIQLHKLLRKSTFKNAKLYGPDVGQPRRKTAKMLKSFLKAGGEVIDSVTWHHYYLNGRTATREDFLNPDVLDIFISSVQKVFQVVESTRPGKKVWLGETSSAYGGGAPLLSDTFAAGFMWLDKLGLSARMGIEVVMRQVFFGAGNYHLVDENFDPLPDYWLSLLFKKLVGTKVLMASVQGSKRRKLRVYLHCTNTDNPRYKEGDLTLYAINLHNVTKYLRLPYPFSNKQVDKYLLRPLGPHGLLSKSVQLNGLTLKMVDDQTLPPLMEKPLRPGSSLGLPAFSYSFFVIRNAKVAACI
Assay: Circular dichroism spectrometry of pro-heparanase
Design: key to a helix / β strand / β turn / Un-ordered: fraction of secondary structure (0-1)
Settings: fraction of secondary structure of H60
Protocol: Circular Dichroism spectrometry—Circular Dichroism spectra were recorded using a JASCO 500 spetropolarimeter. Far Ultraviolet measurements (260-200 nm) were performed in a 0.1 mm demountable cuvette at 25° C., scanning at a rate of 10 nm/min. Pro-heparanase was assayed at a concentration of 0.72 mg/ml in 20 mM sodium phosphate buffer pH 6.8 supplemented with 300 mM NaCl. Effect of heparin on pro-heparanase spectra was determined at a concentration of 100 μM, and the inhibitor was added at a concentration of 15 μM. Base-line recordings were performed in the presence and absence of heparin to correct the pro-heparanase spectra.

B1: H60 − heparin: purified 60 kDa pro-heparanase without heparin (protein)
chain: T1 sequence (Q9Y251 36-543 K307R)
  Un-ordered: 0.33
  a helix: 0.29
  β strand: 0.26
  β turn: 0.12

B2: H60 + heparin: 60 kDa pro-heparanase in the presence of heparin (protein, UniProt Q9Y251 36-543, looked up)
pro-form: T1 sequence (Q9Y251 36-543 K307R) with R272K
modifications: pro-form with heparin
notes: 60 kDa pro-heparanase in the presence of heparin
  Un-ordered: 0.3
  a helix: 0.44
  β strand: 0.26
  β turn: 0
